This is an account of results in patent publication US20210155689A1 (SHANGHAI PHARMAEXPLORER, published 2021).

In experiment [1] the target is T1, human LAG-3 on cells (HEK293-hLAG-3 stable cell line) (human, UniProt P18627 23-525).
T1 sequence: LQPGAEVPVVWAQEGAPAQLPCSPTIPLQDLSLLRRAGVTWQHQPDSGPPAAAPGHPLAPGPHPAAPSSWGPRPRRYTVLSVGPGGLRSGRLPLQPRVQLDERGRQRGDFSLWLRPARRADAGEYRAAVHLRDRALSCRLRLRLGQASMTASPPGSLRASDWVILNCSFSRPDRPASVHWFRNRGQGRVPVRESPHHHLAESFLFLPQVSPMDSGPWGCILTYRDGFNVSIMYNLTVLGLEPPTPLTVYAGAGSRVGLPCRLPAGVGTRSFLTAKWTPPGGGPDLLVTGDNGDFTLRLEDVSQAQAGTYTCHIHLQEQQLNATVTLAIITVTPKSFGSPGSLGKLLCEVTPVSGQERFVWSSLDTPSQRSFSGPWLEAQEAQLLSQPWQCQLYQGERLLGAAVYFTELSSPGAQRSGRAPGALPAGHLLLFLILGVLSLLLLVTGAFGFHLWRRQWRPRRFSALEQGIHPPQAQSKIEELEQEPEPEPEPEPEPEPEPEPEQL
Kind of experiment: cell-based or functional assay.

Experiment [2] addresses T2, monkey LAG-3 on cells (HEK293-cLAG-3 stable cell line) (monkey, UniProt P18627 24-525 (human entry)).
T2 construct: Full-length monkey (Chinese monkey) LAG-3 gene expressed on HEK293 cells
T2 chain: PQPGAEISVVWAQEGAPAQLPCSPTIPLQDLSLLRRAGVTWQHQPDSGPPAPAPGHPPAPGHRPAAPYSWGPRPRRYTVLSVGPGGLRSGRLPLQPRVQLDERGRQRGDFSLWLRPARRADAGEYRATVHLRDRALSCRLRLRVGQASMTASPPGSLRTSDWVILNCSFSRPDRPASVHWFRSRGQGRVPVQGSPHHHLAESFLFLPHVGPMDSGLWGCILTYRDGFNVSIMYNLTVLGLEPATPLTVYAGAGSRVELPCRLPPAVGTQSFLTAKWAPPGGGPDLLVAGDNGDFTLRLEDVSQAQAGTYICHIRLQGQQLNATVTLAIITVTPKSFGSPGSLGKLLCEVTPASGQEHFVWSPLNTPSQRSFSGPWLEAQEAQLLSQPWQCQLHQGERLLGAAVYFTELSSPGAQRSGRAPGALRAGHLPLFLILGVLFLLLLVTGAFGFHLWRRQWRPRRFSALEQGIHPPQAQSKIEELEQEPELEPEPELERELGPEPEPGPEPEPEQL
Kind of experiment: FACS, HEK293-cLAG-3, antibody 8.000 nM. An excerpt: The pIRES plasmid with the monkey-derived full-length gene was transfected into the HEK293 cell line to construct a HEK293 stable cell line containing monkey LAG-3 (herein referred to as HEK293-cLAG-3 stable cell line). The HEK293-hLAG-3 stable cell line and HEK293-cLAG-3 stable cell line were expanded in a T-75 cell culture flask to a 90% confluence. The medium was aspirated, and the cells were washed with HBSS (Hanks' Balanced Salt Solution) 1-2 times, then treated with a enzyme-free cell dissociation fluid (Versene solution: Life technology) and the cells were collected. The cells were washed with HBSS buffer for 1-2 times. After counted, the cells were diluted with HBSS to 1-2×10⁶ cells per ml, added with 1% goat serum blocking solution, incubated on ice for 20-30 minutes, and then washed with HBSS for 2 times by centrifugation. The collected cells were suspended in the FACS buffer (HBSS+1% BSA) to 2×10⁶ cells/ml, added as 100 microliters per well to a 96-well FACS reaction plate, added with 100 microliters per well of the antibody sample to be tested, incubated on ice for 1-2 hours. The plate was washed twice with the FACS buffer by centrifugation, added with 100 microliters of fluorescent (Alexa 488)-labeled secondary antibodies per well, and incubated on ice for 0.5-1.0 hours. The plate was washed 2-3 times with FACS buffer by centrifugation, added with 100 μl fixative solution (4% Paraformaldehyde) per well to suspend the cells. 5-10 minutes later, it was washed 1-2 times with FACS buffer by centrifugation. The cells were suspended with 100 microliters of FACS buffer, FACS (FACSCalibur, BD) was used for detection and the results were analyzed.
A general note: In flow cytometry, cells or beads pass a laser one at a time.

Experiment [3] addresses T3, mouse LAG-3 protein with hFc tag (mLAG-3-hFc protein) (mouse; human, UniProt Q61790 24-442).
T3 construct: Made in HEK293 cells; also called mouse LAG-3 extracellular domain protein; not shown: human IgG Fc fragment (hFc) of the pCpC vector
T3 sequence: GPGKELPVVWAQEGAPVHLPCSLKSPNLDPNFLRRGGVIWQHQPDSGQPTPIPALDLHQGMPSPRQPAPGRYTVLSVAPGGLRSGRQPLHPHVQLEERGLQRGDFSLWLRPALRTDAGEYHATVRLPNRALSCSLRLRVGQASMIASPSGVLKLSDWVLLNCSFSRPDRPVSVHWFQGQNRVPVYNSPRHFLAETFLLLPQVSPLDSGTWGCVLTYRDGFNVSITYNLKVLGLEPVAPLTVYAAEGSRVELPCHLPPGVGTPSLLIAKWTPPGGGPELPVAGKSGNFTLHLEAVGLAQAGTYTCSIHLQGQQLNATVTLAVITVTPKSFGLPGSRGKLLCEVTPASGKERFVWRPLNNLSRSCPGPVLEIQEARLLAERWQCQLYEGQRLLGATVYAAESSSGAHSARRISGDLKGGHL
Kind of experiment: ELISA, mLAG-3-hFc coated; 0.0007 nM. The procedure: (§1) The plate was sealed with plastic film and incubated overnight at 4° C. The plate was washed 2 times with the plate washing solution (PBS+0.01% Tween20) on the next day, and added with the blocking solution (PBS+0.01% Tween20+1% BSA) and blocked at room temperature for 1-2 hours. The blocking solution was poured out, and the plate was added with 50-100 μl of the antibody sample to be tested to each well, incubated at 37° C. for 1-2 hours, and washed 2-3 times with a plate washing solution (PBS+0.01% Tween20). HRP (horseradish peroxidase) labeled secondary antibody was added, and the plate was incubated at 37° C. for 1-2 hours, and washed 2-3 times with a plate washing solution (PBS+0.01% Tween20). 100 μl of TMB substrate was added to each well. After incubated at room temperature for 15-30 minutes, the plate was added with 100 μl of stop solution (1.0N HCl) to each well.
Background: ELISA stands for enzyme-linked immunosorbent assay.

Experiment [4] deals with T3, mouse LAG-3 protein with hFc tag …. Kind of experiment: ELISA, mLAG-3-hFc coated; 0.0667 nM. The procedure:
as §1

B1: 105F1E10 mouse-human chimeric antibody (antibody, V domains shown)
VH: EVQLQQSGPELVKPGASVKMSCRASGYTFTDFKMHWMKQSHGKSLEWIGYIAPNNGGTAYNQKFRGKATLTVNESSNTAYMELRSLTSEDSAVYYCVDWDDVDYWGQGTTLTVSS
VL: DIKMTQSPSSMYASLGERVTITCKASQDINSYLSWFQQKSGKSPKTLIYRANRLVDGVPSRFSGSGSGQDYSLTISSLEYEDMGIYYCLQYVEFPLTFGAGTKLELK
notes: also called mAb009-105F1E10
B1: in experiment [1], the “IL-2 production, antigen-specific T lymphocyte stimulation test, 0.016 ug/ml, N = 1” value was 452 pg/mL; the “IL-2 production, antigen-specific T lymphocyte stimulation test, 0.016 ug/ml, N = 2” value was 420 pg/mL; the “IL-2 production, antigen-specific T lymphocyte stimulation test, 0.08 ug/ml, N = 1” value is 437 pg/mL; the “IL-2 production, antigen-specific T lymphocyte stimulation test, 0.08 ug/ml, N = 2” value amounted to 467 pg/mL. Moreover, in experiment [1], the “IL-2 production, antigen-specific T lymphocyte stimulation test, 0.4 ug/ml, N = 1” value came to 779 pg/mL; the “IL-2 production, antigen-specific T lymphocyte stimulation test, 0.4 ug/ml, N = 2” value was determined as 757 pg/mL; the “IL-2 production, antigen-specific T lymphocyte stimulation test, 2 ug/ml, N = 1” value is 853 pg/mL; the “IL-2 production, antigen-specific T lymphocyte stimulation test, 2 ug/ml, N = 2” value amounted to 792 pg/mL. In experiment [1], the “IL-2 production, antigen-specific T lymphocyte stimulation test, 10 ug/ml, N = 1” value stood at 850 pg/mL and the “IL-2 production, antigen-specific T lymphocyte stimulation test, 10 ug/ml, N = 2” value was found to be 627 pg/mL. For the same molecule, in experiment [2], the Mean fluorescence intensity came out at 37.9.

B2: 105F1E10 (LAG-3 mouse-human chimeric antibody) (antibody, V domains shown)
VH: EVQLQQSGPELVKPGASVKMSCRASGYTFTDFKMHWMKQSHGKSLEWIGYIAPNNGGTAYNQKFRGKATLTVNESSNTAYMELRSLTSEDSAVYYCVDWDDVDYWGQGTTLTVSS
VL: DIKMTQSPSSMYASLGERVTITCKASQDINSYLSWFQQKSGKSPKTLIYRANRLVDGVPSRFSGSGSGQDYSLTISSLEYEDMGIYYCLQYVEFPLTFGAGTKLELK
For B2, the OD450 in experiment [3] and in experiment [4] was 0.08 OD450 each time.

B3: 405B8H3 (LAG-3 mouse-human chimeric antibody) (antibody, V domains shown)
VH: QVQLQQSGAELVRPGASVTLSCKASGYTFTDYEMHWVKQTPVHGLEWIGATDPETGNSAYNQKFKGKAIMTADKSSSTAYMELRSLTSEDSAVYYCISTGWNDWGQGTSLTVSS
VL: DIKMTQSPSSMYASLGERVTITCKASQDINSYLSWFQQKPGKSPKTLIYRADRLLDGVPSRFSGSGSGQDYSLTISSLEYGDMGIYYCLQYDEFPYTFGGGTKLEIK
notes: also called mouse-human chimeric antibody 405B8H3
Turning to B3, the OD450 in experiment [3] and in experiment [4] was 0.08 OD450 in each case.

B4: 409D4E10 (LAG-3 mouse-human chimeric antibody) (antibody, V domains shown)
VH: QVQLQQSGAELVRPGASVTLSCKASGNTFTDYEMHWVKQTPVHGLEWIGATDPETDNTAYNQKFKGKAILTTDKSSSTAYMELRSLTSEDSAVYYCITSGWNDWGQGTSLTVSS
VL: DIKMTQSPSSMYASLGERVTITCKASQDINSYLSWFQQKPGKSPKTLIYRANRLLDGVPSRFSGSGSGQDYSLTISSLEYEDMGIYYCLQYNEFPYTFGGGTKLEIK
For the molecule B4, the OD450 in experiment [3] and in experiment [4] was 0.13 OD450 throughout.

B5: 409B11E12 (LAG-3 mouse-human chimeric antibody) (antibody, V domains shown)
VH: QVQLQQSGAELVRPGASVTLSCKASGYTFTDYEMHWVKQTTVHGLEWIGATDPETSYSAYNQKFKGKAILTADKSSSTAYMELRSLTSEDSAVYYCIATGWNDWGQGTSLTVSS
VL: DLKMTQSPSSMYASLGERVTITCKASQDINSYLSWFQQKPGKSPKTLIYRANRLLDGVPSRFSGSGSGQDYSLTISSLEYEDMGIYYCLQYDEFPYTFGGGTKLEIK
Take B5: the OD450 in experiment [3] turned out to be 0.08 OD450; in experiment [4], 0.09 OD450.

B6: 556F6B8 mouse-human chimeric antibody (antibody, V domains shown)
VH: RVQLKQSGPGLVQPSQSLSITCTVSGFSLIKYGVHWVRQSPGEGLEWLGVIWRGGITDYNAAFMSRLSITKDNSKSQVFFKMNSLQADDTAIYYCAKWDGPLAMDYWGQGTSVTVSS
VL: DIVMTQSHKFLSTSVGDRVSITCKASQDVGTTVAWYQQKPGQSPKLLIYWASTRHTGVPDRFTGSGSGTDFTLTISNVQSEDLADYFCQQYSSYPYTFGGGTKLEIK
notes: also called mAb123-556F6B8; 556F8B8
On to B6, for which, in experiment [1], the “IL-2 production, antigen-specific T lymphocyte stimulation test, 0.016 ug/ml, N = 1” value was found to be 348 pg/mL; the “IL-2 production, antigen-specific T lymphocyte stimulation test, 0.016 ug/ml, N = 2” value was 353 pg/mL; the “IL-2 production, antigen-specific T lymphocyte stimulation test, 0.08 ug/ml, N = 1” value amounted to 499 pg/mL; the “IL-2 production, antigen-specific T lymphocyte stimulation test, 0.08 ug/ml, N = 2” value was determined as 491 pg/mL. Besides, in experiment [1], the “IL-2 production, antigen-specific T lymphocyte stimulation test, 0.4 ug/ml, N = 1” value was 794 pg/mL; the “IL-2 production, antigen-specific T lymphocyte stimulation test, 0.4 ug/ml, N = 2” value is 599 pg/mL; the “IL-2 production, antigen-specific T lymphocyte stimulation test, 2 ug/ml, N = 1” value was 818 pg/mL; the “IL-2 production, antigen-specific T lymphocyte stimulation test, 2 ug/ml, N = 2” value came to 866 pg/mL. Further, in experiment [1], the “IL-2 production, antigen-specific T lymphocyte stimulation test, 10 ug/ml, N = 1” value was found to be 584 pg/mL and the “IL-2 production, antigen-specific T lymphocyte stimulation test, 10 ug/ml, N = 2” value stood at 722 pg/mL. Also, in experiment [2], the Mean fluorescence intensity was determined as 42.5.

B7: 556F6B8 (LAG-3 mouse-human chimeric antibody) (antibody, V domains shown)
VH: RVQLKQSGPGLVQPSQSLSITCTVSGFSLIKYGVHWVRQSPGEGLEWLGVIWRGGITDYNAAFMSRLSITKDNSKSQVFFKMNSLQADDTAIYYCAKWDGPLAMDYWGQGTSVTVSS
VL: DIVMTQSHKFLSTSVGDRVSITCKASQDVGTTVAWYQQKPGQSPKLLIYWASTRHTGVPDRFTGSGSGTDFTLTISNVQSEDLADYFCQQYSSYPYTFGGGTKLEIK
notes: also called 556F8B8
B7: the OD450 in experiment [3] was 0.08 OD450; in experiment [4], 0.11 OD450.
